Tests used:
Assay in all cases: cell_activity
[1] = tested on: TALEN L*, non-canonical RVDs (synthetic (Xanthomonas TALE scaffold))
[2] = tested on: TALEN L (L538), canonical RVDs (synthetic (Xanthomonas TALE scaffold)); settings: cold shock
[3] = tested on: TALEN L*+17 (synthetic (Xanthomonas TALE scaffold)); settings: for off-target activity reduction (fold reduction vs L+17): L*+17 homodimer at +17_OT1
[4] = tested on: TALEN L+17 (synthetic (Xanthomonas TALE scaffold)); settings: K562, partner R2+17, cold shock
[5] = tested on: TALEN R*, non-canonical RVDs (synthetic (Xanthomonas TALE scaffold)); settings: cold shock
[6] = tested on: TALEN R (R557), canonical RVDs (synthetic (Xanthomonas TALE scaffold)); settings: cold shock
[7] = tested on: TALEN R 102112 (synthetic (Xanthomonas TALE scaffold)); settings: K562, partner TALEN L
[8] = tested on: TALEN R 102162 (synthetic (Xanthomonas TALE scaffold)); settings: K562, partner TALEN L
[9] = tested on: TALEN R 102124 (synthetic (Xanthomonas TALE scaffold)); settings: K562, partner TALEN L
[10] = tested on: TALEN R 102156 (synthetic (Xanthomonas TALE scaffold)); settings: K562, partner TALEN L
[11] = tested on: TALEN R 102146 (synthetic (Xanthomonas TALE scaffold)); settings: K562, partner TALEN L
[12] = tested on: TALEN R 102115 (synthetic (Xanthomonas TALE scaffold)); settings: K562, partner TALEN L
[13] = tested on: TALEN R 102177 (synthetic (Xanthomonas TALE scaffold)); settings: K562, partner TALEN L
[14] = tested on: TALEN R 102150 (synthetic (Xanthomonas TALE scaffold)); settings: K562, partner TALEN L
[15] = tested on: TALEN R 102159 (synthetic (Xanthomonas TALE scaffold)); settings: K562, partner TALEN L
[16] = tested on: TALEN R 102148 (synthetic (Xanthomonas TALE scaffold)); settings: K562, partner TALEN L
[17] = tested on: TALEN R 102158 (synthetic (Xanthomonas TALE scaffold)); settings: K562, partner TALEN L
[18] = tested on: TALEN R 102105 (synthetic (Xanthomonas TALE scaffold)); settings: K562, partner TALEN L
[19] = tested on: TALEN R 102109 G34R in repeat 8 (synthetic (Xanthomonas TALE scaffold)); settings: K562, partner TALEN L
[20] = tested on: TALEN R 102151 (synthetic (Xanthomonas TALE scaffold)); settings: K562, partner TALEN L
[21] = tested on: TALEN R 102123 (synthetic (Xanthomonas TALE scaffold)); settings: K562, partner TALEN L
[22] = tested on: TALEN R 102102 (synthetic (Xanthomonas TALE scaffold)); settings: K562, partner TALEN L
[23] = tested on: TALEN R 102128 (synthetic (Xanthomonas TALE scaffold)); settings: K562, partner TALEN L
[24] = tested on: TALEN R 102161 (synthetic (Xanthomonas TALE scaffold)); settings: K562, partner TALEN L
[25] = tested on: TALEN R 102129 (synthetic (Xanthomonas TALE scaffold)); settings: K562, partner TALEN L
[26] = tested on: TALEN L 102075 (synthetic (Xanthomonas TALE scaffold)); settings: K562, partner TALEN R
[27] = tested on: TALEN L 102049 (synthetic (Xanthomonas TALE scaffold)); settings: K562, partner TALEN R
[28] = tested on: TALEN L 102213 (synthetic (Xanthomonas TALE scaffold)); settings: K562, partner TALEN R
[29] = tested on: TALEN L 102219 (synthetic (Xanthomonas TALE scaffold)); settings: K562, partner TALEN R
[30] = tested on: TALEN L 102078 (synthetic (Xanthomonas TALE scaffold)); settings: K562, partner TALEN R
[31] = tested on: TALEN L 102215 (synthetic (Xanthomonas TALE scaffold)); settings: K562, partner TALEN R
[32] = tested on: TALEN L 102210 (synthetic (Xanthomonas TALE scaffold)); settings: K562, partner TALEN R
[33] = tested on: TALEN L 102206 (synthetic (Xanthomonas TALE scaffold)); settings: K562, partner TALEN R
[34] = tested on: TALEN L 102202 (synthetic (Xanthomonas TALE scaffold)); settings: K562, partner TALEN R
[35] = tested on: TALEN L 102217 (synthetic (Xanthomonas TALE scaffold)); settings: K562, partner TALEN R
[36] = tested on: TALEN L 102010 (synthetic (Xanthomonas TALE scaffold)); settings: K562, partner TALEN R
[37] = tested on: TALEN L 102056 (synthetic (Xanthomonas TALE scaffold)); settings: K562, partner TALEN R
[38] = tested on: TALEN L 102006 (synthetic (Xanthomonas TALE scaffold)); settings: K562, partner TALEN R
[39] = tested on: TALEN L 102208 (synthetic (Xanthomonas TALE scaffold)); settings: K562, partner TALEN R
[40] = tested on: TALEN L 102077 (synthetic (Xanthomonas TALE scaffold)); settings: K562, partner TALEN R
[41] = tested on: TALEN L 102076 (synthetic (Xanthomonas TALE scaffold)); settings: K562, partner TALEN R
[42] = tested on: TALEN L 102216 (synthetic (Xanthomonas TALE scaffold)); settings: K562, partner TALEN R
[43] = tested on: TALEN L 102002 (synthetic (Xanthomonas TALE scaffold)); settings: K562, partner TALEN R
[44] = tested on: TALEN L 102209 (synthetic (Xanthomonas TALE scaffold)); settings: K562, partner TALEN R
[45] = tested on: TALEN L 102211 (synthetic (Xanthomonas TALE scaffold)); settings: K562, partner TALEN R
[46] = tested on: TALEN L 102072 (synthetic (Xanthomonas TALE scaffold)); settings: K562, partner TALEN R
[47] = tested on: TALEN L 102066 (synthetic (Xanthomonas TALE scaffold)); settings: K562, partner TALEN R
[48] = tested on: TALEN L 102041 (synthetic (Xanthomonas TALE scaffold)); settings: K562, partner TALEN R
[49] = tested on: TALEN L 102038 (synthetic (Xanthomonas TALE scaffold)); settings: K562, partner TALEN R
[50] = tested on: TALEN L 102085 (synthetic (Xanthomonas TALE scaffold)); settings: K562, partner TALEN R
[51] = tested on: TALEN L 102203 (synthetic (Xanthomonas TALE scaffold)); settings: K562, partner TALEN R
[52] = tested on: TALEN L 102224 (synthetic (Xanthomonas TALE scaffold)); settings: K562, partner TALEN R
[53] = tested on: TALEN L 102083 (synthetic (Xanthomonas TALE scaffold)); settings: K562, partner TALEN R
[54] = tested on: TALEN L 102035 (synthetic (Xanthomonas TALE scaffold)); settings: K562, partner TALEN R
[55] = tested on: TALEN L 102205 (synthetic (Xanthomonas TALE scaffold)); settings: K562, partner TALEN R
[56] = tested on: TALEN L 102046 (synthetic (Xanthomonas TALE scaffold)); settings: K562, partner TALEN R; 30.1 in Table 4
[57] = tested on: TALEN L 102052 (synthetic (Xanthomonas TALE scaffold)); settings: K562, partner TALEN R
[58] = tested on: TALEN L 102214 (synthetic (Xanthomonas TALE scaffold)); settings: K562, partner TALEN R
[59] = tested on: TALEN L 102204 (synthetic (Xanthomonas TALE scaffold)); settings: K562, partner TALEN R
[60] = tested on: TALEN L 102043 (synthetic (Xanthomonas TALE scaffold)); settings: K562, partner TALEN R
[61] = OT2, L*/L* homodimer, about 180-fold below L

Sequence: CCCGATGAAGCCCCAGGTGTTTTAAAT (double strand) [OT2 right half]
- activity [1, 61]: 0.017 % indels
- activity ([2]; OT2, L/L homodimer): 3.18 % indels

Sequence: CTTCATTACACCTGCAGCTCTCA (double strand) [CCR5 +17 target, left half]
- activity ([3]; K562, partner R2+17, cold shock): > 85 % indels
- activity [4]: > 85 % indels

Sequence: CTTGATTCCACCTGTAGCTCCGAGCAAA (double strand) [OT2 left half]
- activity [1, 61]: 0.017 % indels
- activity ([2]; OT2, L/L homodimer): 3.18 % indels

Sequence: GTTACCAGATATCCTTTCTGGAAGAAA (double strand) [OT1 right half]
- activity ([5]; OT1, L*/R*, 0.663 for L/R*): 0.32 % indels
- activity ([6]; OT1, L/R): 3.17 % indels

Sequence: TCTTCCAGAATTGATACT (double strand) [TALEN R binding site (CCR5)]
- activity [7]: 6.1 % indels
- activity [8]: 23.1 % indels
- activity [9]: 29.1 % indels
- activity [10]: 25.4 % indels
- activity [11]: 31.4 % indels
- activity [12]: 27.7 % indels
- activity [13]: 22.9 % indels
- activity [14]: 31.2 % indels
- activity ([5]; K562, L*/R*, 55.53 with L): 65.2 % indels
- activity [15]: 24.9 % indels
- activity [16]: 33.7 % indels
- activity [17]: 23.4 % indels
- activity [18]: 24.9 % indels
- activity [19]: 29.7 % indels
- activity [20]: 23.6 % indels
- activity [21]: 32.8 % indels
- activity [22]: 27.8 % indels
- activity [23]: 7.6 % indels
- activity ([6]; K562, L/R): 50.6 % indels
- activity [24]: 9.3 % indels
- activity [25]: 4.7 % indels

Sequence: TTCATTACACCTGCAGCT (double strand) [TALEN L binding site (CCR5)]
- activity [26]: 10.7 % indels
- activity [27]: 25.9 % indels
- activity [28]: 34.1 % indels
- activity [29]: 37.8 % indels
- activity [30]: 25.1 % indels
- activity [31]: 29 % indels
- activity [32]: 33.6 % indels
- activity [33]: 23.5 % indels
- activity [34]: 32.4 % indels
- activity [35]: 34.5 % indels
- activity [36]: 17.3 % indels
- activity [37]: 30.9 % indels
- activity [38]: 1.3 % indels
- activity [39]: 27.9 % indels
- activity ([1]; K562, L*/R*, cold shock, 58.66 with R): 65.2 % indels
- activity [40]: 23.8 % indels
- activity [41]: 21.6 % indels
- activity [42]: 35.4 % indels
- activity [43]: 20.3 % indels
- activity [44]: 28.4 % indels
- activity [45]: 23.2 % indels
- activity [46]: 24.5 % indels
- activity [47]: 22.9 % indels
- activity [48]: 4.2 % indels
- activity [49]: 17.2 % indels
- activity [50]: 26.1 % indels
- activity ([2]; K562, L/R): 50.6 % indels
- activity [51]: 16.6 % indels
- activity [52]: 38.7 % indels
- activity [53]: 27 % indels
- activity [54]: 16.8 % indels
- activity [55]: 40.2 % indels
- activity [56]: 33.6 % indels
- activity [57]: 30.1 % indels
- activity [58]: 31.2 % indels
- activity [59]: 36.6 % indels
- activity [60]: 22.4 % indels

Sequence: TTTACCCTGCAGGTGTGATGAAT (double strand) [+17_OT1 right half]
- off-target activity reduction (fold reduction vs L+17) [3]: > 100

Sequence: TTTAGATACACCTACCTATAAAT (double strand) [+17_OT1 left half]
- off-target activity reduction (fold reduction vs L+17) [3]: > 100

Sequence: TTTTATTACACTTCCAGATCTTTTATT (double strand) [OT1 left half]
- activity ([1]; OT1, L*/R*, cold shock, 1.967 for L*/R): 0.32 % indels
- activity ([2]; OT1, L/R): 3.17 % indels
